Two substances from US20210246189A1 can be followed below.

This test has as its target transgenic TCR specific for A*02:01/pp65495-503, on transduced PBMCs. Put plainly: cell-based or functional assay.

“un-functionalized A2/pp65495-503 pMHC (Tub-tagged Streptamer) (from UniProt P61769 21-119; P06725 495-503) (peptide-MHC)” displayed an Ag-specific CD8 T cell population after 5d culture with 0.25 ug pMHC of 64.5% and an Ag-specific CD8 T cell population after 5d culture with 0.5 ug pMHC of 20 to 43.7%.

Regarding “A1/pp65(363-373) pMHC functionalized with MMAF (irrelevant toxin armed Streptamer) (from UniProt P61769 21-119; P06725 363-373) (peptide-MHC)”, the Ag-specific CD8 T cell population after 5d culture with 0.25 ug pMHC was determined as 60.7%.
